According to publication PMC6283856 (2018):

B1: ubiquitin-specific peptidase 17 (USP17), wild type [not stated] / TNFR-associated factor 3 (TRAF3) [not stated] (parent complex)
chain 1: MEDDSLYLGGEWQFNHFSKLTSSRPDAAFAEIQRTSLPEKSPLSSEARVDLCDDLAPVARQLAPRKKLPLSSRRPAAVGAGLQNMGNTCYENASLQCLTYTPPLANYMLSREHSQTCQRPKCCMLCTMQAHITWALHSPGHVIQPSQALAAGFHRGKQEDAHEFLMFTVDAMKKACLPGHKQVDHHSKDTTLIHQIFGGCWRSQIKCLHCHGISDTFDPYLDIALDIQAAQSVKQALEQLVKPEELNGENAYHCGLCLQRAPASKTLTLHTSAKVLILVLKRFSDVTGNKLAKNVQYPECLDMQPYMSQQNTGPLVYVLYAVLVHAGWSCHDGHYFSYVKAQEGQWYKMDDAKVTACSITSVLSQQAYVLFYIQKSEWERHSESVSRGREPRALGAEDTDRRATQGELKRDHPCLQAPELDERLVERATQESTLDHWKFPQEQNKTKPEFNVRKVEGTLPPNVLVIHQSKYKCGMKNHHPEQQSSLLNLSSTTRTDQESVNTGTLASLQGRTRRSKGKNKHSKRALLVCQ
chain 2: MESSKKMDSPGALQTNPPLKLHTDRSAGTPVFVPEQGGYKEKFVKTVEDKYKCEKCHLVLCSPKQTECGHRFCESCMAALLSSSSPKCTACQESIVKDKVFKDNCCKREILALQIYCRNESRGCAEQLMLGHLLVHLKNDCHFEELPCVRPDCKEKVLRKDLRDHVEKACKYREATCSHCKSQVPMIALQKHEDTDCPCVVVSCPHKCSVQTLLRSELSAHLSECVNAPSTCSFKRYGCVFQGTNQQIKAHEASSAVQHVNLLKEWSNSLEKKVSLLQNESVEKNKSIQSLHNQICSFEIEIERQKEMLRNNESKILHLQRVIDSQAEKLKELDKEIRPFRQNWEEADSMKSSVESLQNRVTELESVDKSAGQVARNTGLLESQLSRHDQMLSVHDIRLADMDLRFQVLETASYNGVLIWKIRDYKRRKQEAVMGKTLSLYSQPFYTGYFGYKMCARVYLNGDGMGKGTHLSLFFVIMRGEYDALLPWPFKQKVTLMLMDQGSSRRHLGDAFKPDPNSSSFKKPTGEMNIASGCPVFVAQTVLENGTYIKDDTIFIKVIVDTSDLPDP
B2: ubiquitin-specific peptidase 17 (USP17), wild type [not stated] / TNFR-associated factor 2 (TRAF2) [not stated] (parent complex)
chain 1: B1 chain 1
chain 2: MAAASVTPPGSLELLQPGFSKTLLGTKLEAKYLCSACRNVLRRPFQAQCGHRYCSFCLASILSSGPQNCAACVHEGIYEEGISILESSSAFPDNAARREVESLPAVCPSDGCTWKGTLKEYESCHEGRCPLMLTECPACKGLVRLGEKERHLEHECPERSLSCRHCRAPCCGADVKAHHEVCPKFPLTCDGCGKKKIPREKFQDHVKTCGKCRVPCRFHAIGCLETVEGEKQQEHEVQWLREHLAMLLSSVLEAKPLLGDQSHAGSELLQRCESLEKKTATFENIVCVLNREVERVAMTAEACSRQHRLDQDKIEALSSKVQQLERSIGLKDLAMADLEQKVLEMEASTYDGVFIWKISDFARKRQEAVAGRIPAIFSPAFYTSRYGYKMCLRIYLNGDGTGRGTHLSLFFVVMKGPNDALLRWPFNQKVTLMLLDQNNREHVIDAFRPDVTSSSFQRPVNDMNIASGCPLFCPVSKMEAKNSYVRDDAIFIKAIVDLTGL

Variants of: B1
Test: co-immunoprecipitation (IP: Myc, IB: Flag) with band quantification; coexpressed in HEK293 cells; parent: 100; read off a plot

chain 1 MEDDSLYLGGEWQFNHFSKLTSSRPDAAFAEIQRTSLPEKSPLSSEARVDLCDDLAPVARQLAPRKKLPLSSRRPAAVGAGLQNMGNTCYENASLQCLTYTPPLANYMLSREHSQTCQRPKCCMLCTMQAHITWALHSPGHVIQPSQALAAGFHRGKQEDAHEFLMFTVDAMKKACLPGHKQVDHHSKDTTLIHQIFGGCWRSQIKCLHCHGISDTFDPYLDIALDIQAAQSVKQALEQLVKPEELNGENAYHCGLCLQRAPASKTLTLHTSAKVLILVLKRFSDVTGNKLAKNVQYPECLDMQPYMSQQNTGPLVYVLYAVLVHAGWSCHDGHYFSYVKAQEGQWYKMDDAKVTACSITSVLSQQAYVLFYIQKSEWERHSESVSRGREPRALGAEDTDRRATQGELKRDHPCLQAPELDERLVERATQESTLDHWKFPQEQNKTKPEFNVRKVEGTLPPNVLVIHQSKYKCGMKNHHPEQQLSLLNLSSTTRTDQESVNTGTLASLQGRTRRSKGKNKHSKRALLVCQ [chain 1 S484L] was tested. Which percent of parent did it give?
Its percent of parent is roughly 38%.

Which percent of parent does the source give for chain 1 MEDDSLYLGGEWQFNHFSKLTSSRPDAAFAEIQRTSLPEKSPLSSEARVDLCDDLAPVARQLAPRKKLPLSSRRPAAVGAGLQNMGNTCYENASLQCLTYTPPLANYMLSREHSQTCQRPKCCMLCTMQAHITWALHSPGHVIQPSQALAAGFHRGKQEDAHEFLMFTVDAMKKACLPGHKQVDHHSKDTTLIHQIFGGCWRSQIKCLHCHGISDTFDPYLDIALDIQAAQSVKQALEQLVKPEELNGENAYHCGLCLQRAPASKTLTLHTSAKVLILVLKRFSDVTGNKLAKNVQYPECLDMQPYMSQQNTGPLVYVLYAVLVHAGWSCHDGHYFSYVKAQEGQWYKMDDAKVTACSITSVLSQQAYVLFYIQKSEWERHSESVSRGREPRALGAEDTDRRATQGELKRDHPCLQAPELDERLVERATQESTLDHWKFPQEQNKTKPEFNVRKVEGTLPPNVLVIHQSKYKCGMKNHHPERQSSLLNLSSTTRTDQESVNTGTLASLQGRTRRSKGKNKHSKRALLVCQ [chain 1 Q482R] here?
Its percent of parent is roughly 30%.

Which percent of parent does the source give for chain 1 MEDDSLYLGGEWQFNHFSKLTSSRPDAAFAEIQRTSLPEKSPLSSEARVDLCDDLAPVARQLAPRKKLPLSSRRPAAVGAGLQNMGNTCYENASLQCLTYTPPLANYMLSREHSQTCQRPKCCMLCTMQAHITWALHSPGHVIQPSQALAAGFHRGKQEDAHEFLMFTVDAMKKACLPGHKQVDHHSKDTTLIHQIFGGCWRSQIKCLHCHGISDTFDPYLDIALDIQAAQSVKQALEQLVKPEELNGENAYHCGLCLQRAPASKTLTLHTSAKVLILVLKRFSDVTGNKLAKNVQYPECLDMQPYMSQQNTGPLVYVLYAVLVHAGWSCHDGHYFSYVKAQEGQWYKMDDAKVTACSITSVLSQQAYVLFYIQKSEWERHSESVSRGREPRALGAEDTDRRATQGELKRDHPCLQAPELDERLVERATQESTLDHWKFPQEQNKTKPEFNVRKVEGTLPPNVLVIHQSKYKCGMKNHHLEQQSSLLNLSSTTRTDQESVNTGTLASLQGRTRRSKGKNKHSKRALLVCQ [chain 1 P480L] here?
Its percent of parent is roughly 68%.

Variants of: B2
Test: as above

chain 1 MEDDSLYLGGEWQFNHFSKLTSSRPDAAFAEIQRTSLPEKSPLSSEARVDLCDDLAPVARQLAPRKKLPLSSRRPAAVGAGLQNMGNTCYENASLQCLTYTPPLANYMLSREHSQTCQRPKCCMLCTMQAHITWALHSPGHVIQPSQALAAGFHRGKQEDAHEFLMFTVDAMKKACLPGHKQVDHHSKDTTLIHQIFGGCWRSQIKCLHCHGISDTFDPYLDIALDIQAAQSVKQALEQLVKPEELNGENAYHCGLCLQRAPASKTLTLHTSAKVLILVLKRFSDVTGNKLAKNVQYPECLDMQPYMSQQNTGPLVYVLYAVLVHAGWSCHDGHYFSYVKAQEGQWYKMDDAKVTACSITSVLSQQAYVLFYIQKSEWERHSESVSRGREPRALGAEDTDRRATQGELKRDHPCLQAPELDERLVERATQASTLDHWKFPQEQNKTKPEFNVRKVEGTLPPNVLVIHQSKYKCGMKNHHPEQQSSLLNLSSTTRTDQESVNTGTLASLQGRTRRSKGKNKHSKRALLVCQ [chain 1 E431A] was tested. Which percent of parent did it give?
The percent of parent was roughly 29%.

Which percent of parent does the source give for chain 1 MEDDSLYLGGEWQFNHFSKLTSSRPDAAFAEIQRTSLPEKSPLSSEARVDLCDDLAPVARQLAPRKKLPLSSRRPAAVGAGLQNMGNTCYENASLQCLTYTPPLANYMLSREHSQTCQRPKCCMLCTMQAHITWALHSPGHVIQPSQALAAGFHRGKQEDAHEFLMFTVDAMKKACLPGHKQVDHHSKDTTLIHQIFGGCWRSQIKCLHCHGISDTFDPYLDIALDIQAAQSVKQALEQLVKPEELNGENAYHCGLCLQRAPASKTLTLHTSAKVLILVLKRFSDVTGNKLAKNVQYPECLDMQPYMSQQNTGPLVYVLYAVLVHAGWSCHDGHYFSYVKAQEGQWYKMDDAKVTACSITSVLSQQAYVLFYIQKSEWERHSESVSRGREPRALGAEDTDRRATQGELKRDHPCLQAPELDERLVERVTQESTLDHWKFPQEQNKTKPEFNVRKVEGTLPPNVLVIHQSKYKCGMKNHHPEQQSSLLNLSSTTRTDQESVNTGTLASLQGRTRRSKGKNKHSKRALLVCQ [chain 1 A428V] here?
Its percent of parent is roughly 79%.

chain 1 MEDDSLYLGGEWQFNHFSKLTSSRPDAAFAEIQRTSLPEKSPLSSEARVDLCDDLAPVARQLAPRKKLPLSSRRPAAVGAGLQNMGNTCYENASLQCLTYTPPLANYMLSREHSQTCQRPKCCMLCTMQAHITWALHSPGHVIQPSQALAAGFHRGKQEDAHEFLMFTVDAMKKACLPGHKQVDHHSKDTTLIHQIFGGCWRSQIKCLHCHGISDTFDPYLDIALDIQAAQSVKQALEQLVKPEELNGENAYHCGLCLQRAPASKTLTLHTSAKVLILVLKRFSDVTGNKLAKNVQYPECLDMQPYMSQQNTGPLVYVLYAVLVHAGWSCHDGHYFSYVKAQEGQWYKMDDAKVTACSITSVLSQQAYVLFYIQKSEWERHSESVSRGREPRALGAEDTDRRATQGELKRDHPCLQAPELDERLVERATQESTLDHWKFPQEQNKTKPEFNVRKVEGTLPPNVLVIHQSKYKCGMKNHHPERQSSLLNLSSTTRTDQESVNTGTLASLQGRTRRSKGKNKHSKRALLVCQ [chain 1 Q482R] was tested. Which percent of parent did it give?
The percent of parent was roughly 37%.
